How the values were obtained:
[1] = molecular target: extracellular domain of the human β-klotho protein (human) (UniProt Q86Z14); test: BLI
[2] = molecular target: extracellular domain of the human β-klotho protein (human) (UniProt Q86Z14)
[3] = molecular target: GLP-1 receptor (UniProt P43220)
[4] = molecular target: GLP-1 receptor (UniProt P43220); remark: listed apart in the source
[5] = molecular target: extracellular domain of the human β-klotho protein (human) (UniProt Q86Z14); remark: listed apart in the source

Sequence of GLP-1 receptor (P43220 24-463): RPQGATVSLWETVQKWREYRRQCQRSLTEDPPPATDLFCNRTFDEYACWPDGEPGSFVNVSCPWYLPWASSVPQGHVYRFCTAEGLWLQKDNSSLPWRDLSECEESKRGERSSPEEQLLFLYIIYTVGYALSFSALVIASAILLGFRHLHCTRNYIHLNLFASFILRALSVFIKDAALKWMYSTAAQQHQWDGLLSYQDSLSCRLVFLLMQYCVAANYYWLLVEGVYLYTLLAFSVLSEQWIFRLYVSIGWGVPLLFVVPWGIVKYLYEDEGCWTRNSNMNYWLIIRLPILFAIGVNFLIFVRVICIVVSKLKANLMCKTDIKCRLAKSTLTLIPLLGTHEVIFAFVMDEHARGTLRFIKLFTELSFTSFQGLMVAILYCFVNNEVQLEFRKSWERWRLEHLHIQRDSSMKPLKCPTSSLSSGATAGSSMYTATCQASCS
Sequence of extracellular domain of the human β-klotho protein (human) (Q86Z14 1-996): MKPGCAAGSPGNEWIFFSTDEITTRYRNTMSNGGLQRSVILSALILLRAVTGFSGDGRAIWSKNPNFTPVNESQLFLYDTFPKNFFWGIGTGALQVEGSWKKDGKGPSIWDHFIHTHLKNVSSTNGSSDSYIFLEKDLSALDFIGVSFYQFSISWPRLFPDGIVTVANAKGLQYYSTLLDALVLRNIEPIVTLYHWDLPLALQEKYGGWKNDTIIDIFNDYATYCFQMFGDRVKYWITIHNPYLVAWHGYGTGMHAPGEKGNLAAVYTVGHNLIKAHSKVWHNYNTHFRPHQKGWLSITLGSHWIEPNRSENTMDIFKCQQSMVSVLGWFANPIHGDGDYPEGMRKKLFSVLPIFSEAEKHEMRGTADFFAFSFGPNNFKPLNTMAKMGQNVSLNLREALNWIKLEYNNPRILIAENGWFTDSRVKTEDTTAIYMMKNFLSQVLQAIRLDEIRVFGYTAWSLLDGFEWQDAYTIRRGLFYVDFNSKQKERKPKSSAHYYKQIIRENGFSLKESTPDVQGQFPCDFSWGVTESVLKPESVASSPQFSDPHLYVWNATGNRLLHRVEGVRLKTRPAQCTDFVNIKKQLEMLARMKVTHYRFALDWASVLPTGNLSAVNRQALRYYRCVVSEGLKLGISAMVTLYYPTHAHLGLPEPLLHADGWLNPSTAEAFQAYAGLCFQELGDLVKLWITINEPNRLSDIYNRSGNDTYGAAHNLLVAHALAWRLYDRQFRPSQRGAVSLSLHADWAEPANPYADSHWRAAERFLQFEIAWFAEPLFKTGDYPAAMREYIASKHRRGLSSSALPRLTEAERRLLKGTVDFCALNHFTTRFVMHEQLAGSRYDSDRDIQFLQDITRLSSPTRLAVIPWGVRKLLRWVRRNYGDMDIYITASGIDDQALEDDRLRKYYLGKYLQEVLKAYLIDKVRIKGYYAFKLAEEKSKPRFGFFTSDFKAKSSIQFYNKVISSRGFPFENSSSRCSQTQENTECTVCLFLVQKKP

| Substance | Kd [1] [nM] | EC50 of ERK1/2 phosphorylation in HEK293 cells expressing β-Klotho (Fig. 2a) [2] [nM] | EC50 of cAMP production in HEK293 cells expressing GLP-1R alone (Fig. 2b) [3] [nM] | EC50 of cAMP in HEK293 cells expressing both GLP-1R and β-Klotho (Fig. 2c) [4] [nM] | EC50 of cAMP in HEK293 cells expressing both GLP-1R and β-Klotho (Fig. 2c) [5] [nM] |
| --- | --- | --- | --- | --- | --- |
| Fc-FGF21 (L98R, S167H, P171A) (Fc fusion) | 0.59 | – | – | – | – |
| GLP-1-Fc-FGF21 (L98R, S167H, P171A) (Fc fusion) | 0.24 | – | – | – | – |
| Fc-FGF21 (L98R, P171A) (Fc fusion) | 0.767 | – | – | – | – |
| GLP-1-Fc-FGF21 (L98R, S167H, P171A, R175L) (Fc fusion) | 0.0924 | 1.52 | 0.15 | – | – |
| Dulaglutide (Fc fusion) | – | – | 0.06 | 0.21 | – |
| Fc-FGF21 (L98R, S167H, P171A, R175L) (Fc fusion) | 0.316 | 1.13 | – | – | 305 |

Source: article PMC7806870
